Experimental data: patent US20240279356A1 (Xencor, published 2024)
Where a chain is given by its changes, count along the chain named.

B1: MESO-C[MSLN]_H1_L1.9 (Fab, V domains shown)
VH: QVQLVQSGAEVKKPGASVKVSCKASGYTFTSYWMHWVRQAPGQGLEWMGMIHPNSDNTIYYEKFQGRVTMTVDKSISTAYMELSRLRSDDTAVYYCAIIITPVVPKFDYWGQGTLVTVSS
VL: DIVMTQSPDSLAVSLGERATINCKASHDVGTSVAWYQQKPGQSPKLLIYWASTRHTGVPDRFTGSGSGTDFTLTISSLQAEDVAVYFCQQYYSYPLTFGAGTKLEIK
notes: It was tested as the Fab arm(s) of anti-MSLN x anti-CD3 bsAbs
B2: MESO-C[MSLN]_H1.12_L1.9 (Fab, V domains shown)
VH: B1 VH with E62Q
VL: B1 VL
notes: as for B1
B3: MESO-C[MSLN]_H1.3_L1 (Fab, V domains shown)
VH: B1 VH with M50W
VL: B1 VL with Y92S
notes: as for B1
B4: MESO-C[MSLN]_H1_L1.5 (Fab, V domains shown)
VH: B1 VH
VL: B1 VL with S32Y, Y92S
notes: as for B1
B5: XENP32561 (bispecific antibody)
heavy: QVQLVQSGAEVKKPGASVKVSCKASGYTFTSYWMHWVRQAPGQGLEWMGMIHPNSDNTIYYEKFQGRVTMTVDKSISTAYMELSRLRSDDTAVYYCAIIITPVVPKFDYWGQGTLVTVSSASTKGPSVFPLAPSSKSTSGGTAALGCLVKDYFPEPVTVSWNSGALTSGVHTFPAVLQSSGLYSLSSVVTVPSSSLGTQTYICNVNHKPSDTKVDKKVEPKSCDKTHTCPPCPAPPVAGPSVFLFPPKPKDTLMISRTPEVTCVVVDVKHEDPEVKFNWYVDGVEVHNAKTKPREEEYNSTYRVVSVLTVLHQDWLNGKEYKCKVSNKALPAPIEKTISKAKGQPREPQVYTLPPSREEMTKNQVSLTCDVSGFYPSDIAVEWESDGQPENNYKTTPPVLDSDGSFFLYSKLTVDKSRWEQGDVFSCSVMHEALHNHYTQKSLSLSPGK
scFv-Fc: not shown
light: DIVMTQSPDSLAVSLGERATINCKASHSVGTSVAWYQQKPGQSPKLLIYWASTRHTGVPDRFTGSGSGTDFTLTISSLQAEDVAVYFCQQYSSYPLTFGAGTKLEIKRTVAAPSVFIFPPSDEQLKSGTASVVCLLNNFYPREAKVQWKVDNALQSGNSQESVTEQDSKDSTYSLSSTLTLSKADYEKHKVYACEVTHQGLSSPVTKSFNRGEC
notes: 1+1 Fab-scFv-Fc
B6: XENP32853 (bispecific antibody)
heavy 1: B5 heavy
heavy 2: QVQLVQSGAEVKKPGASVKVSCKASGYTFTSYWMHWVRQAPGQGLEWMGMIHPNSDNTIYYEKFQGRVTMTVDKSISTAYMELSRLRSDDTAVYYCAIIITPVVPKFDYWGQGTLVTVSSASTKGPSVFPLAPSSKSTSGGTAALGCLVKDYFPEPVTVSWNSGALTSGVHTFPAVLQSSGLYSLSSVVTVPSSSLGTQTYICNVNHKPSNTKVDKKVEPKSCGGGGSGGGGSQAVVTQEPSLTVSPGGTVTLTCGSSTGAVTTSNYANWVQQKPGKSPRGLIGGTNKRAPGVPARFSGSLLGGKAALTISGAQPEDEADYYCALWYSNHWVFGGGTKLTVLGKPGSGKPGSGKPGSGKPGSEVQLVESGGGLVQPGGSLRLSCAASGFTFSTYAMNWVRQAPGKGLEWVGRIRSKYNNYATYYADSVKGRFTISRDDSKNTLYLQMNSLRAEDTAVYYCVRHGNFGDEYVSWFAYWGQGTLVTVSSEPKSSDKTHTCPPCPAPPVAGPSVFLFPPKPKDTLMISRTPEVTCVVVDVKHEDPEVKFNWYVDGVEVHNAKTKPREEQYNSTYRVVSVLTVLHQDWLNGKEYKCKVSNKALPAPIEKTISKAKGQPREPQVYTLPPSREQMTKNQVKLTCLVKGFYPSDIAVEWESNGQPENNYKTTPPVLDSDGSFFLYSKLTVDKSRWQQGNVFSCSVMHEALHNHYTQKSLSLSPGK
light: B5 light with S28D, S92Y
notes: 2+1 Fab2-scFv-Fc; copies: 1 + 1 + 2
B7: XENP32562 (bispecific antibody)
heavy: B5 heavy
scFv-Fc: not shown
light: B5 light with S28D, G30L
notes: 1+1 Fab-scFv-Fc
B8: XENP32751 (bispecific antibody)
heavy: B5 heavy
Fab-scFv-Fc: QVQLVQSGAEVKKPGASVKVSCKASGYTFTSYWMHWVRQAPGQGLEWMGMIHPNSDNTIYYEKFQGRVTMTVDKSISTAYMELSRLRSDDTAVYYCAIIITPVVPKFDYWGQGTLVTVSSASTKGPSVFPLAPSSKSTSGGTAALGCLVKDYFPEPVTVSWNSGALTSGVHTFPAVLQSSGLYSLSSVVTVPSSSLGTQTYICNVNHKPSNTKVDKKVEPKSCGGGGSGGGGSQAVVTQEPSLTVSPGGTVTLTCGSSTGAVTTSNYANWVQQKPGKSPRGLIGGTNKRAPGVPARFSGSLLGGKAALTISGAQPEDEADYYCALWYSNHWVFGGGTKLTVLGKPGSGKPGSGKPGSGKPGSEVQLVESGGGLVQPGGSLRLSCAASGFTFSTYAMNWVRQAPGKGLEWVGRIRSKANNYATYYADSVKGRFTISRDDSKNTLYLQMNSLRAEDTAVYYCVRHGNFGDSYVSWFAYWGQGTLVTVSSGGGGSGGGGSKTHTCPPCPAPPVAGPSVFLFPPKPKDTLMISRTPEVTCVVVDVKHEDPEVKFNWYVDGVEVHNAKTKPREEQYNSTYRVVSVLTVLHQDWLNGKEYKCKVSNKALPAPIEKTISKAKGQPREPQVYTLPPSREQMTKNQVKLTCLVKGFYPSDIAVEWESNGQPENNYKTTPPVLDSDGSFFLYSKLTVDKSRWQQGNVFSCSVMHEALHNHYTQKSLSLSPGK
light: B5 light with S28D, S32Y
notes: as for B6
B9: XENP32748 (bispecific antibody)
heavy 1: B5 heavy
heavy 2: B8 Fab-scFv-Fc
light: B5 light with S28D, G30L
notes: 2+1 Fab2-scFv-Fc
B10: XENP32852 (bispecific antibody)
heavy 1: B5 heavy
heavy 2: B8 Fab-scFv-Fc
light: B5 light with S28D, S92Y
notes: as for B6

Key:
human MSLN antigen [1] = biological target: T1, human MSLN antigen (human, UniProt Q13421 296-580, limits assumed); assay: MSLN KD of the binding domain (Octet BLI, Example 2B(a)); quoted in Example 3B(a)
T1 construct: Soluble antigen for BLI; also called Mesothelin; MESO
From the text: (§1) Variants of MESO-C were engineered by introducing point substitutions into the variable heavy region (VH) and the variable light region (VL) to generate 11 VH variants and 16 VL variants (sequences for which are depicted in FIG. 18 as H1.1-H1.13 and in FIG. 19 as L1.1-L1.18). An additional 4 VL variants were generated by combining useful point substitutions (sequences for which are depicted in FIG. 19 as L1.19-L1.22). WT and variant variable heavy regions were paired with WT and variant variable light regions to generate variant variable regions (Fvs) which were produced in the context of anti-MSLN×anti-CD3 bispecific antibodies. The bispecific antibodies were screened for MSLN binding affinity using Octet®, a BioLayer Interferometry (BLI)-based method. Experimental steps for Octet® generally include the following: Immobilization (capture of ligand to a biosensor); Association (dipping of ligand-coated biosensors into wells containing the analyte); and Dissociation (returning of biosensors to well containing buffer). In an initial screening, anti-human Fc sensors were used to capture the bispecific mAbs and dipped into human MSLN antigen (one concentration to screen large library). The resulting dissociation constant of illustrative variants (KD), association rate (kₐ), dissociation rate (kd), as well as sensorgram response are depicted in FIG. 20. In further screening of favorite variants identified in the initial screen (and combination variants), bispecific mAbs were dipped into multiple concentrations of human MSLN antigen, data for which are depicted in FIG. 21 (from various screens).

human MSLN antigen [2] = biological target: T1, human MSLN antigen; assay: Octet BLI; bsAb on anti-human Fc sensor, human MSLN as analyte, one concentration
Summary of the method: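 Anti-MSLN×anti-CD3 bispecifics carrying MESO-C VH/VL variant Fvs were captured on anti-human Fc biosensors and dipped into human MSLN antigen, followed by buffer dissociation. Initial library screen used one antigen concentration; selected and combination variants were run at multiple concentrations, giving KD, ka and kd.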

human MSLN antigen [3] = biological target: T1, human MSLN antigen; assay: Octet BLI on human MSLN antigen (Example 2B(a)); KD quoted in the FIG. 35 legend
From the text: as §1

cyno MSLN = biological target: T2, cyno MSLN (Macaca fascicularis (cynomolgus)); assay: Octet BLI; bsAb on anti-human Fc sensor, cyno MSLN as analyte, one concentration
T2 construct: soluble antigen for Octet; also called cynomolgus MSLN

[4] = biological target: T3, MSLN on OVCAR8 (MSLN^high) and other cancer cell lines (UniProt Q13421 296-598); assay: flow cytometry on OVCAR8 cells, detected with A647-labelled anti-human Fc mAb
T3 construct: whole, on cells; Endogenous surface MSLN; also called MSLN^high OVCAR8 cells; MSLN^low SKOV3 and HT29 cells
Protocol: Next, the effect of MSLN binding affinity was investigated. 100,000 OVCAR8 (MSLN^high) cells were treated with the indicated concentrations of the indicated test articles. […] Further, XENP32852 and XENP32853 which differ only in CD3 binding affinity have identical binding to OVCAR8 cells confirming that avid binding is due to the MSLN binding domain.

T1 sequence (Q13421 other isoform, or with tags, fused parts or gaps limits assumed): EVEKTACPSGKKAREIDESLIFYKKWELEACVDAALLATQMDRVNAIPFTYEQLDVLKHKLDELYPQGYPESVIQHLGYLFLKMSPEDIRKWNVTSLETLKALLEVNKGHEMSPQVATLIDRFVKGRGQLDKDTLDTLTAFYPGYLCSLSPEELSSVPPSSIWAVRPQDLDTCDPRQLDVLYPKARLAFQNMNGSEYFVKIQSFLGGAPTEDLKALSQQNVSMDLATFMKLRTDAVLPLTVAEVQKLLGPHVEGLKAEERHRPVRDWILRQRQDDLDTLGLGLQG
T3 sequence (Q13421 other isoform, or with tags, fused parts or gaps limits assumed): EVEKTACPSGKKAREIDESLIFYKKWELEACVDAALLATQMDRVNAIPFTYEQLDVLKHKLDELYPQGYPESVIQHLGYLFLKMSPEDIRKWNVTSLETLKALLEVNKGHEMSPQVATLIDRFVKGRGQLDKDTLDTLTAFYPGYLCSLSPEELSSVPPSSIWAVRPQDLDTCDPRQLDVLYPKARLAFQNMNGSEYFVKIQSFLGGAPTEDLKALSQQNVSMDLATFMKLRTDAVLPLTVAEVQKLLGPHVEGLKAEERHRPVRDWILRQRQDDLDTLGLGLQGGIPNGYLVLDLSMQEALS

Row | Binder | Kd (human MSLN antigen [1]) [nM] | Kd (human MSLN antigen [3]) [nM] | EC50 (read off the curve) [4] [µg/mL] | also measured
1 | B1 | 3.9 | – | – | –
2 | B2 | 10.2 | – | – | –
3 | B3 | 9.2 | – | – | –
4 | B4 | ~12.8 | – | – | –
5 | B5 | – | 0.45 | ~0.2 | Kd (human MSLN antigen [2]): 0.355 nM; Response (human MSLN antigen [2]): 1.08; koff (human MSLN antigen [2]): 0.000215 s⁻¹; kon (human MSLN antigen [2]): 606000 M⁻¹ s⁻¹; Kd (cyno MSLN): 0.413 nM; Response (cyno MSLN): 0.976; koff (cyno MSLN): 0.000248 s⁻¹; kon (cyno MSLN): 600000 M⁻¹ s⁻¹
6 | B6 | – | 3.9 | ~0.06 | –
7 | B7 | – | 0.74 | ~0.2 | Kd (human MSLN antigen [2]): 0.628 nM; Response (human MSLN antigen [2]): 1.01; koff (human MSLN antigen [2]): 0.000409 s⁻¹; kon (human MSLN antigen [2]): 651000 M⁻¹ s⁻¹; Kd (cyno MSLN): 0.887 nM; Response (cyno MSLN): 0.9; koff (cyno MSLN): 0.000594 s⁻¹; kon (cyno MSLN): 669000 M⁻¹ s⁻¹
8 | B8 | – | ~12.8 | ~0.05 | –
9 | B9 | – | 0.74 | ~0.04 | –
10 | B10 | – | 3.9 | ~0.06 | –
